In the DeepSol protein solubility set:

Test: soluble on expression in E. coli; label from the status in PepcDB or PDB records

Sequence | soluble on expression in E. coli
MGSDKIHHHHHHMNRSGTISGNNFQSTAAQTTAGPRESRLAASVCRIAPFYDFILRRKIMRQKIPLLASFKLTFRCNLSCLACPFHQRAGEEKANMSWSLARASLDALKHQGTLIVVFEGGEPFLWRDGRHDLHDLVNYAGRLFPRVAVTTNGTFPLDVPADILWVSLDGLKETHDRLRSGSFDRVWENLEQCSHGRLFVHFTINRENRHDIRPLLEKLKGIPAFRGMTVQLFYPYGQGEASLALSDLERKTVLEEVVAMKKQGFPILNSAGRLTAMINNDWRCHDDILINVDPDGAITPGCYVKSRGRINCRNCGFSPVSEASGALDLFPGSLKAGWSIFLK | not soluble
MGSDKIHHHHHHMDVNEIRENAKKLMELMMLDKPFVAVKLAKSKEEIPEGYETLDEEKRHCEMIQMARLERKKLYATVDKHLCKGGAYAMGVFRNPPEPLATGKLYVKLGNFKDEEAAKKTVDAIPKVEEEIYATVYAPLDETDFIPDSIVFIGEPLYALRLVQAILYHKGGRFQADFSGIQSLCADAVAAVYTRKAPNMTLGCNGSRKYAGIKPEEVVVAFPPEKLKDIVEAIEHFRQVWTCGH | not soluble
MATVKIKFRPSSVDGKEGTVYYQVIHVRVARQISTSYRLFPAEWDKRRARIVAAPSDEGRRQHLSLLEGKIMEDTDRLEGIITTLERRRGAFTADDVVSAFNGGHYSLSFPVFMREVINGLKRLGKIRTSETYTSTLNSFIRFMEGRDVLPDDMDSDLMVAYEAWLESGGVSMNTISFYMRNLRAVYNRAVEKGLTVQRFPFKHVYTGVEKTTKRAVPLHVIKRLKSLDLSFEPAKAYARDMLLFSFYTRGMSMVDMAFLKKKDLNNGILSYRRKKTGQQLLIKWEPCMQEIVDRYNIPGSPYLLSVIDRPGTDERKQYINASHRINRHLKVLGKELGMSVPLTHYVARHSWASAARSKNIPISVISEGMGHDSETTTRIYLASLDTATIDRANKLILKSLQI | not soluble
MSLTVHATPEPAAHQGVALGSSFYAAMRILPRPQREAMFQVYSFCRFVDDIADSDRPREQRVAELQQWRDDIAALYRGAPPPRLADYQESLRTFGLKREDFEAIIDGMEMDVDADIRAPDEATLDLYCDRVASAVGRLSVRIFGLPEADGIELSHHLGRALQLTNILRDIDEDAGIGRLYLPSELLHKVGITATDPRVVAADSALPSVCAPLVERALAHFAAADKVMNRNPRRVVKAPRIMGKYYYSILQLLIARGFAAPRAPVKLGKASKIAILLQYAIVEGHHHHHH | soluble
VCSCRLVFCRRTELRVGNCLIGGVSFTYCCTRV | soluble
MNTNREPRFHDKVQAACYALMLDEHGVPADTGTLLYTKNAAVDRSEASGDLSPAKEFSIGRGFLEFVVRERNHLAALEASDGPPTGYEADAKCDYCFEQDTCMVVSGRLDQESKAGRIGDPVPAEERAYFDELYDAIEAERGAIHDEYRKLWEQSPDERAADDRAVVGLSPAEQTELPDGRWRLTATRPGSAASKIREGDRVLASDGDPVAGRAEMARVERLDADRVEVTTDEPVSLCRLDVYPSELEHHHHHH | soluble
MGSDKIHHHHHHMSSEMNGTAPFQDQGATDVSLLEDIVRVTKLQPADEAYSITRRGVAALMAQLLEPGAEARKVSKAVLDDMIAEIDRKLSLQMDEILHHPQFQALESSWRSLHFLVDRTDFRENNRIEFLNATKEELLDDFEDAPEVAKSGLYKTVYSAEYGQFGGKPFGAIIGNYDFGPGAQDIKLLQSLAAVAGMAHAPFMAAASPQFFGCDDFTALPNLKDISSILEGPQYAKWQAFRESEDARYVGLALPRFLLRLPYGEATRPAKCFNYEEQVSDSHDRYCWGNAAFAFATRLTESFANFRWCANIIGPQGGGTVHDLPLHQYQAMGAIQTKIPTEVLISERREFELAEGGFIALTMRKGSDNAAFFSANSVQKPKFFGSSKEGKEAELNYKLGLQLPYMFIVSRLAHYLKVIQREHIGTWKERGDLENELNLWIRQYVSEMDNPMPGVRSRRPLRQAEVTVEEVPGEPGWYRVGLKVTPHFKYMGAYFTLSLVGKLDKE | not soluble
AHHHHHHGSRELVEIIKGIGIEGAKEVEEKVDRQFYALQYLFRHQDPEMFIKLVIANSLVSYQLTGRGEDWWWEFARYFSGREVDSIWKAYGEFLPKSKNNRRLIEAKLNRIRKVEGFLSTLTLKDLEGYYKNMKMLWKALIKIMGSREDSKTIVFTVKMFGYASRIAFSRFIPYPMEIPIPEDLRIKSVTSKLTQEKPTKFWMKIGQESGVPPLHIDSLIWPLLGNADLTPLDIELRNKLMKLTELLGL | soluble
